Assay results: article doi:10.1101/2021.04.23.441157

Columns and labels:
Test in all cases: TIRF microscopy of filaments on supported lipid bilayers
[1] = target: Cdc11a-Cdc11bCTE-capped septin octamer (Ashbya gossypii | S. cerevisiae) (UniProt P32468)
[2] = target: Cdc11a-capped septin hetero-octamer (recombinant Ashbya gossypii septin complex) (Ashbya gossypii | S. cerevisiae) (UniProt P32468)
[3] = target: Cdc11b-Cdc11aCTE-capped septin octamer (Ashbya gossypii | S. cerevisiae) (UniProt P32468)
[4] = target: Cdc11b-capped septin hetero-octamer (recombinant Ashbya gossypii septin complex) (Ashbya gossypii | S. cerevisiae) (UniProt P32468)

An average filament length at steady state [1] of 0.94 µm and an average filament length at steady state, in octamers [1] of 29 octamers were found for “Cdc11a-Cdc11bCTE-capped septin octamer (from UniProt P32468 1-407) (complex)” in this work.
An average filament length at steady state [2] of 0.72 µm and an average filament length at steady state, in octamers [2] of 23 octamers were found for “Cdc11a-capped septin hetero-octamer (recombinant Ashbya gossypii septin complex) (from UniProt P32468 1-407)” in this work.
An average filament length at steady state [3] of 0.55 µm and an average filament length at steady state, in octamers [3] of 17 octamers were found for “Cdc11b-Cdc11aCTE-capped septin octamer (from UniProt P32468 1-407) (complex)” in this work.
An average filament length at steady state [4] of 0.52 µm and an average filament length at steady state, in octamers [4] of 16 octamers were found for “Cdc11b-capped septin hetero-octamer (recombinant Ashbya gossypii septin complex) (from UniProt P32468 1-407)” in this work.
